Reference: paper doi:10.1101/2020.06.02.129890 (bioRxiv, 2020)

Target: Rhodopsin (endogenous in mouse retina) (mouse (endogenous in retina), UniProt P15409 1-348)
Experiment: far-Western, overlay or dot blot

B1: GFP-MYO1C-790-1028 (MYO1C tail domain, also known as the cargo domain) (domain or fragment, mouse, UniProt Q9WTI7-2 790-1028, looked up)
chain: PRNVLDTSWPTPPPALREASELLRELCMKNMVWKYCRSISPEWKQQLQQKAVASEIFKGKKDNYPQSVPRLFISTRLGTEEISPRVLQSLGSEPIQYAVPVVKYDRKGYKPRPRQLLLTPSAVVIVEDAKVKQRIDYANLTGISVSSLSDSLFVLHVQREDNKQKGDVVLQSDHVIETLTKTALSADRVNNININQGSITFAGGPGRDGIIDFTSGSELLITKAKNGHLAVVAPRLNSR
Does B1 bind?
Result: binds
